Test [1] deals with Sbi-E (amino acids 28–266) (Staphylococcus aureus (entry printed for strain Newman)) (UniProt A6QJQ7).
Test [2] has as its target Sbi-III-IV (amino acids 150–266) (Staphylococcus aureus (entry printed for strain Newman)) (UniProt A6QJQ7).

Substance “complement Factor H (from UniProt P08603 19-1231) (natural protein)” had an inhibition of alternative pathway-mediated lyses of rabbit erythrocytes by human serum, increasing amounts of Sbi-E in test [1] of 600 ng. The substance further yielded an inhibition of alternative pathway-mediated lyses of rabbit erythrocytes by human serum, increasing amounts of Sbi-III/IV in test [2] of 600 ng.

The values are drawn from paper PMC2602735.
